# Assay results as given in patent US9938354B2, “Lin28-mediated control of let-7 biogenesis” (Children's Medical Center Corporation, priority 2011, dated 2018).
# B1: Lin28A: purified recombinant human His-tagged Lin28A RNA-binding protein (protein, UniProt Q9H9Z2 2-209, looked up)
# Protein lin-28 homolog A: GSVSNQQFAGGCAKAAEEAPEEAPEDAARAADEPQLLHGAGICKWFNVRMGFGFLSMTARAGVALDPPVDVFVHQSKLHMEGFRSLKEGEAVEFTFKKSAKGLESIRVTGPGGVFCIGSERRPKGKSMQKRRSKGDRCYNCGGLDHHAKECKLPPQPKKCHFCQSISHMVASCPLKAQQGPSAQGKPTYFREEEEEIHSPTLLPEAQN
# modifications: His tag
# B2: Lin28B: purified recombinant human His-tagged Lin28B RNA-binding protein (protein)
# chain: MAEGGASKGGGEEPGKLPEPAEEESQVLRGTGHCKWFNVRMGFGFISMINREGSPLDIPVDVFVHQSKLFMEGFRSLKEGEPVEFTFKKSSKGLESIRVTGPGGSPCLGSERRPKGKTLQKRKPKGDRCYNCGGLDHHAKECSLPPQPKKCHYCQSIMHMVANCPHKNVAQPPASSQGRQEAESQPCTSTLPREVGGGHGCTSPPFPQEARAEISERSGRSPQEASSTKSSIAPEEQSKKGPSVQKRKKT
# modifications: left off: small tags and cut ends
# Tests used:
# [1] = target: T1, TUTase (Homo sapiens, UniProt Q5TAX3); experiment: In vitro TUTase activity (uridylation) assay; format: biochemical; settings: chain terminator; prevents oligo-U tail elongation
# T1 construct: Flag; made in house; host or cells: HEK293 / HEK293T cells (transient transfection, anti-Flag M2 purification)
# Experimental: In vitro TUTase assays can be employed also. Some of the hit compounds may influence Lin28A-TUTase activity independent of altered expression levels. […] For in vitro uridylation assays, synthetic pre-let-7 RNA is incubated with the affinity-purified proteins in the presence of [α-^32P]-UTP.
# A pilot screen is performed on the in vitro assay, using a chemical library that contains a collection of nucleotide analogs. The catalytic activity of the TUTase is inhibited by certain nucleotide analogs, and that the identification of these compounds through HTS will lead to their utility as a novel chemotherapeutic in Lin28A-expressing cancers. There are readily available libraries of such compounds; similar compounds have already been applied in the clinic. […] Then, putative hits from this primary screen are evaluated through secondary screens that include dose curves, in vitro TUTase activity assays, and analyses of let-7 expression by q.RT-PCR on compound-treated cells. […]
# Purified proteins were incubated with 4 pmol of unlabelled synthetic RNA (Dharmacon) for 1 hour at 37° C. in a 30 μl reaction mixture containing 100 mM KCl, 20 mM Tris-HCl pH 7.6, 10% Glycerol, 125 nM [α-^32P]UTP, 3.2 mM MgCl2, 40 U RNasin ribonuclease inhibitor (Promega). Products were resolved on 15% denaturing polyacrylamide gels and bands were detected by autoradiography.
# [2] = target: pre-let-7g; experiment: EMSA of recombinant Lin28A and Lin28B with pre-let-7g; format: binding; settings: 0.5 nM 5′-end labeled pre-let-7g, without competitor yeast tRNA, estimated, read-out: apparent Kd
# Experimental: (§1) Furthermore, Lin28B directly binds and sequesters pri-let-7. To further dissect the mechanism of the Lin28B-mediated let-7 processing block, the relative abilities of recombinant human Lin28A and Lin28B proteins to bind pre-let-7 were compared. (FIG. 7A, 7B and FIG. 8). EMSA was performed with pre-let-7g to analyze the relative binding affinities of the two recombinant proteins. Lin28A and Lin28B have apparent Kds of approximately 0.6 nM and 0.5 nM, respectively (FIG. 7B). Both these estimated Kds are much lower than a previously reported for recombinant mouse Lin28A. This difference is likely due to the omission here of nonspecific yeast tRNA competitor used previously in the binding buffer. Piskounova et al., 2008. […] Collectively, these assays reveal that both Lin28 proteins can directly bind to let-7 precursors with high-affinity in vitro.
# (§2) Transformed BL21-CodonPlus® Competent bacteria (Stratagene) were grown to an OD600 nm of 0.4-0.6. […] Band intensities of scanned gels were quantified using ImageJ software and used to calculate percentage of probe bound. […] […] Percent active protein was determined using stoichiometric binding reactions as described in Ryder et al. (2008) Hills equation for specific binding with one site, Y=Bmax*X^h= […]
# [3] = test system: pri-let-7g; experiment: EMSA of recombinant Lin28A and Lin28B with pri-let-7g; format: binding; settings: in vitro transcribed uniformly labeled pri-let-7g
# Experimental: as §1, §2
# T1 sequence (Q5TAX3 whole entry): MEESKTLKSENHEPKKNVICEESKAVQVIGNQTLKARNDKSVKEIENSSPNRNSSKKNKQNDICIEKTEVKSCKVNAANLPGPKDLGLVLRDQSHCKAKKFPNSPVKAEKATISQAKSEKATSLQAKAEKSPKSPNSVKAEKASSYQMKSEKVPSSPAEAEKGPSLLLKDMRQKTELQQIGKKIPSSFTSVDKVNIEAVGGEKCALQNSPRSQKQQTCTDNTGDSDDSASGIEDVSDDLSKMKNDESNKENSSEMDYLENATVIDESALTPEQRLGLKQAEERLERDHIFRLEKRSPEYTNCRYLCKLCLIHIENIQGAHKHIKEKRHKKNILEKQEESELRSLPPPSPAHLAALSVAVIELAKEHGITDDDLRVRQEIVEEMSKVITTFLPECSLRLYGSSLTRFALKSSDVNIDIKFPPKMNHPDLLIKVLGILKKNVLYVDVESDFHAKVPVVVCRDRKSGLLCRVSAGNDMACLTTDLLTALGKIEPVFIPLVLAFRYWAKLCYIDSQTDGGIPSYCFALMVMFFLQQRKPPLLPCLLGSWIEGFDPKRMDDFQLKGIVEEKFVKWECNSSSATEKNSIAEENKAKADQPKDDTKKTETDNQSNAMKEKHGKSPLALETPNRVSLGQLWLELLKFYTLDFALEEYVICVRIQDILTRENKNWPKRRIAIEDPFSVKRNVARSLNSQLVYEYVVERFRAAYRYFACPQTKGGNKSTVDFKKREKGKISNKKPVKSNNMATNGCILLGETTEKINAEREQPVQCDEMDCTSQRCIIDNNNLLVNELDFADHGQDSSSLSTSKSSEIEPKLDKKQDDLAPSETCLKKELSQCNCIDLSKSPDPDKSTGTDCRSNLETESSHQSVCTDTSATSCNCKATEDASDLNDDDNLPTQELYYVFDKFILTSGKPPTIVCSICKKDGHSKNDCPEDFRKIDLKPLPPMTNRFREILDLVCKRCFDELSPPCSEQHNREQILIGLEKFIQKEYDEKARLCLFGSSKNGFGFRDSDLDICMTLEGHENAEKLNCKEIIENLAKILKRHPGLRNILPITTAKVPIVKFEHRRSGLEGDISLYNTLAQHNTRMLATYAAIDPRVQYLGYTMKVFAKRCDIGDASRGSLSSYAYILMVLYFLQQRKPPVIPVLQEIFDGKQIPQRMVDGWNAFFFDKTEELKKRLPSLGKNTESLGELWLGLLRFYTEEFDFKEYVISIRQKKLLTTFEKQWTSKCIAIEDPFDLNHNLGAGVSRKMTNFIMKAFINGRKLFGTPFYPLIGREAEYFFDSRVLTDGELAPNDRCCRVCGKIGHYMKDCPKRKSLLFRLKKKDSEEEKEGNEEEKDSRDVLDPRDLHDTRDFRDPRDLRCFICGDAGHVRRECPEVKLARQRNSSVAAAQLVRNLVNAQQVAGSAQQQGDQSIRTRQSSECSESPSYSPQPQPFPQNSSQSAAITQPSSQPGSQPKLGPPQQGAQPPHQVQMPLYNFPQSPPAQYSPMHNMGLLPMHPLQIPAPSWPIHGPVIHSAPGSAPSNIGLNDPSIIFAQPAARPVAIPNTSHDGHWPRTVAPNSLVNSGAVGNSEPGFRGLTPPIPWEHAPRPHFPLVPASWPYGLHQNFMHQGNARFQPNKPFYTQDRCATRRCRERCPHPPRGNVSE
Molecule,TUTase activity in vitro [1],Kd [2] [nM],binding to pri-let-7g [3]
"O=c1ccn([C@H]2CC[C@@H](COP(=O)(O)OP(=O)(O)OP(=O)(O)O)O2)c(=O)[nH]1 [2′,3′-dideoxy-UTP]",effectively inhibits TUTase activity in vitro,,
B1,,~0.6,able to bind pri-let-7g with similar affinities
B2,,~0.5,able to bind pri-let-7g with similar affinities
